In the DeepSol protein solubility set:

Experiment: soluble on expression in E. coli; label from the status in PepcDB or PDB records

Row | Sequence | soluble on expression in E. coli
1 | MGSDKIHHHHHHGCDDNTGGLGLGMFPGNDQNIKGKLSTFDVTTESVKTGDIYAKTNIGYIGKFTDETFGTYQAGFLAQLNCPDGLTFPEPYKEVTDASGNVISATGRMVVDDKDPENKDVTFIKDGNQIIGNIRAVELYLWYDSYFGDSLTACRLSVYELGGNGKETLNLDNAYYTDINPEDFYDSQNILGTKAYTAVDLSVKDSIRNLSTYVPSVHIAFKEDIATRVGGNILTAARKAKNADKEFNSQLFREAFQGIYVKSDYGDGTVLYIDQPQMNVVYKCYATDSITGKKLQKKDGSGKDSTYYSYRVFATTREVIQANQLKNDPERIDALIKEDKNTYLKSPAGIFTEATLPISDIQNELTGDTLNAVKLTFTNYNQTGDKKFGMAIPSTVMLVRKKFQDSFFKDNKLSDGVSSYLTSHTSSTNQYVFSNITKLVNACIAEKEEAKKNAGSSWDETKWLQENPDWNKVVLIPVLVTYDSSNTTTGQANIIRIQHDLKPGYVRLKGGSLGKTNPDYKLKLEVISTDFGLTTKSN | not soluble
2 | MMIENLLIELLTEELPPKSLDKLGNAFAAVIADSLKSQNLTTPDTILTAFASPRRLAVHLTAIPAQAPDQVVALKLMPITVGLDAQGQPTPALHKKLAALGMENVDASALKRVQESKAEMLFLEQNVTGILLAAGLQKAMEDAIRQLPVSKVMTYQLDDGWENVHFVRPVHGLIALHGQKIIPVSAFGLTAGNTTRGHRFEVKQTELIIDHADRYASLLETEGAVIPGFDRRRSWIREGLEAAASAVQLRCISDEVLLDEVTALVEYPNILMGAFPTDFLEVPQECLISTMKINQKYFPLLDTDGKLTNQFLIVANITPADPGQIISGNERVIRSRLADAKFFFDHDRKRTLASRLPDLDKVIYHHQLGSQGERTRYVQTLARIIGRLLGDDNLAGQADQAAMLAKADLLTDMVGEFPELQGIMGRYYARFEGMDETIAFAIEDHYKPRFAGDVLPRSMAGICVALADKLETLISLFSIGQLPTGDKDPYALRRHALGVIRILIEKNLPIGLDVLISRAADVLQDEMIGKQDSGPGHARPVTPQLVGQLQDFFYDRLAASLRDQGYTAQEVEAVLNLRPSL | not soluble
3 | MKRKKPTIHDVAAKAGVGLGTVSRVLNDHPAVRHETRARVLRAMEELGYAPNPHARRIAGGRSYTVSVLLPFVATEFYRRLVEGIEGVLLEQRYDLALFPILSLARLKRYLENTTLAYLTDGLILASYDLTERFEEGRLPTERPVVLVDAQNPRYDSVYLDNRLGGRLAGAYLARFPGPIFAIAVEEEPDRAFRRTVFAERMAGFQEALKEAGRPFSPDRLYITRHSQEGGRLALRHFLEKASPPLNVFAGADQV | soluble
4 | MGSDKIHHHHHHMPLLDIRNLTIELDTPHGRVKALEKVSLMLHAGEIHGLVGESGSGRSLLARAVLGIPGPNWTITADRMMWDGRNLMEMSDVERRNLMGKDMAMIFQDPSGSLDPVITIGAQLIEAMPADKNVPFWRRGRERRLTAQKWLHKVGIKDPKRVMASYPWETSEGECQKVMIAMALANQPRLLIADEPTNSMEPSTQAQIFRLLAQLNQLQGVTIMMISHELETLADWCNNLTVLYCGQVMESGPIDELIREPLHPYTKALMDHLPDYRGNLPHKSLMPVLPGSAPALQHLPIGCRLGPRCPEARRECVHQPQLQHQKDRYYACHFPYRTETNNDDTAA | not soluble
5 | MSLDSPPIRVFVVEDQTKILKNQLRLFENHPEMDIIGTALSGEAALEEVPKLMPDVLLLDLGLPRMSGIDVTREVKARFPKIEILIFTIFDEEDKVLEAVKAGASGYLLKGAPVDKIIEAIKEVRAGGTVIQPNLARRLLRHFRVEPDASPLISPPAAPEPSASDLPQEPLLKPLSDREREILQLIAKGVSNSEAARLLDLSKATIRTHLEHIYRKLEVTNRVEAVTEGIRKGLISEGHHHHHH | soluble
6 | PITDERVYESIGHYGGETVKIVRIEKARDIPLGATVRNEMDSVIISRIVKGGAAEKSGLLHEGDEVLEINGIEIRGKDVNEVFDLLSDMHGTLTFVLIPS | soluble
7 | MGSDKIHHHHHHMDYWEKADYSWSDDSKRHILTPSSKSRTLFYYIQEIGQFKASRPYYTERAHLPSYLIKFTLNGTGELRYRYHTYSLQRGDLFFIDCRDYQYYQATSEDPWEMDWIHFEGGNSGAFFQEFMKNGSPVFSTNQLPEDNPIHLIIQQLLQLQDLQHAQTDYQSSVLIHQLLNELLLQKYRQDFTYETIPSLVLEMKAYIDQHFKETISLEDLAQLFHLNKYQLNKEFSKYIGLPPIKYQISKKISYSKDLLRYSNQTVKEIAVDVGLENYAYFSRLFKKRTGLTPSQYRKSGF | not soluble
8 | MEEEQLLDYEEEQEEIQDKQPEVGGGDARKTKGTYASIHSSGFRDFLLKPEILRAIGDCGFEHPSEVQHECIPQAILGMDVVCQAKSGMGKTAVFVITTLQQLEPVDGEVSVVCMCHTRELAFQISKEYERFSKYLPGVKVAVFFGGMAIKKDEERLANDCPHIVVGTPGRMLALARSGKLKLDKVKYFVLDECDKMIGDADMRRDVQEIVKMTPQQKQVMMFSATLPKELRTVCKRFMQDPMEVYVDDEAKLTLHGLQQHYVKLKEAEKNRRLLNLLDALEFNQVVIFVKAVKRCEALHQLLTEQNFPSIAIHRQMAQEERLSRYQAFKDFQKRILVATDLFGRGMDIERVNIVFNYDMPEDSDSYLHRVARAGRFGTKGLAITFVSDENDAKTLNSVQDRFDISITELPEKIDVSTYIEGRTN | not soluble
9 | MGSDKIHHHHHHMQLLHTPAAISISFDDPNLISTAGLVPTMALAEDRLTVPTDKGANPGAKITTLIAGMVAGADSIDDIDALRHGGMHRLFDWIYAPSTLGSFLRAFTFGHVRQLDAVASRFLVGLATQAPALVPVDASTSDYVFIDVDDTIIKVHGHQKQGAGFGYSGIRGLNALLATVTTPESAPVVVAQRLRKGSCGSPRGAGRLIADAVATTRRLPGMEDEKILLRADSAFYGHPSISAAIKAGADVSVTVRMTPNVKKAIAQVPDDAWQTIKYTNAIFDEDTGRWISVAEVAEIPFTAFTSRKKTDHIPGLLVVRRIPELNNKDVDQPGLFDLHRFHAVFTTADPGILDTVAADKTHRQHAIIEQVNADVKASALAHMPSGVFTANSAWLVCAVMAFNLTRTAGVIAAGAMARATTATIRRKLVAVPARIARSARRLILHLPRNWRWETQWSRLCDHGRLPP | not soluble
10 | MDDKEKNAEVAKAIKLPDLASYMQVVIKQLEIDKKWSAVHTYTYTLKSVTEFYGGKGTPVPIDEAFTSGRLKEYEEWMRLEGTRNKKTDKKRSDRKHGVPKGLSLNTISTYMRTLKAVYNRLADKKILPYNPKLFDNVYTKVESQTKRALDTKQMNTLLHTDIEKLPKEMQCALAYFLLMFLFRGMPFIDLAHLRKQDVKGKYIVYSRHKTGRQITVRIPKEAMKLIEKFKNMNYDSIYLFPILDKKNAAKEQSQKNGKIKKDKELYMNYLRVLRNFNLKLEKIATLLLPDVKLSSYTPRHTWATLAFHAGVNIGIICKALGHSSIKVTETYLKPFENEKVDIANDELIISVVAHNGEKEVA | not soluble
11 | MSLKDMIDSIEQFAQTQADFPVYDCLGERRTYGQLKRDSDSIAAFIDSLALLAKSPVLVFGAQTYDMLATFVALTKSGHAYIPVDVHSAPERILAIIEIAKPSLIIAIEEFPLTIEGISLVSLSEIESAKLAEMPYERTHSVKGDDNYYIIFTSGTTGQPKGVQISHDNLLSFTNWMIEDAAFDVPKQPQMLAQPPYSFDLSVMYWAPTLALGGTLFALPKELVADFKQLFTTIAQLPVGIWTSTPSFADMAMLSDDFCQAKMPALTHFYFDGEELTVSTARKLFERFPSAKIINAYGPTEATVALSAIEITREMVDNYTRLPIGYPKPDSPTYIIDEDGKELSSGEQGEIIVTGPAVSKGYLNNPEKTAEAFFTFKGQPAYHTGDIGSLTEDNILLYGGRLDFQIKYAGYRIELEDVSQQLNQSPMVASAVAVPRYNKEHKVQNLLAYIVVKDGVKERFDRELELTKAIKASVKDHMMSYMMPSKFLYRDSLPLTPNGKIDIKTLINEVNNREGHHHHHH | soluble
12 | MGSDKIHHHHHHVRCLNEEIARKANREDECKGAFWEGRFKSQALLDEQALLACMMYVDLNPIRAGIADSLQSSDFTSIQERISALKQVNNTIISPQAPVQSAKNKPQTINKSLAKFDAATHSSQQTGIPFHFADYLELIDWTGRTIRHDKKGFIDNQRPKLLNELGIASDAWLSSAKDFRRQYSGISGRWDAMCAFKLQQGGKWCRGKSSCEALHPNQPLG | not soluble
13 | MTPEAAYQNLLEFQRETAYLASLGALAAWDQRTMIPKKGHEHRARQMAALARLLHQRMTDPRIGEWLEKVEGSPLVQDPLSDAAVNVREWRQAYERARAIPERLAVELAQAESEAESFWEEARPRDDWRGFLPYLKRVYALTKEKAEVLFALPPAPGDPPYGELYDALLDGYEPGMRARELLPLFAELKEGLKGLLDRILGSGKRPDTSILHRPYPVEAQRRFALELLSACGYDLEAGRLDPTAHPFEIAIGPGDVRITTRYYEDFFNAGIFGTLHEMGHALYEQGLPKEHWGTPRGDAVSLGVHESQSRTWENLVGRSLGFWERFFPRAREVFASLGDVSLEDFHFAVNAVEPSLIRVEADEVTYNLHILVRLELELALFRGELSPEDLPEAWAEKYRDHLGVAPKDYKDGVMQDVHWAGGLFGYFPTYTLGNLYAAQFFQKAEAELGPLEPRFARGEFQPFLDWTRARIHAEGSRFRPRVLVERVTGEAPSARPFLAYLEKKYAALYG | soluble
14 | LARPKLAVVGSRNASQMGVAAVKKIIQDLSKQFVIISGLARGIDTAAHLASLKSGGATIAVIGTGLDVHYPKENRRLQDYIAKNHLLLSEYEAQSQPLKYHFPERNRIIAGLSQGVMVAEAKIRSGSLITCERAMEEGRDVFVVPGNILDGQSEGCHHLIQEGAKCITSGFDILNEFNF | not soluble
15 | MSDSKPRDVQVLPIATNTKVLRARSWSRLRFEIEYALERGTTSNSYVIEGDKTAIIDPPVESFMKIYLEALQQTVNLKKLDYVILGHFSPNRIPTFKALLELAPQITFVCSLPAAGDLRAAFPDDNLNILPMRGKETLDLGKGHVLKFLPIPSPRWPAGLCTYDVQTQILYTDKIFGAHICGDDVFDDNWESFKEDQRYYFNCLMAPHAIHVEAALEKISDLQVRLYAVGHGPLVRTSLIALTQAYADWSKAQKDREISVALLYASAYGNTATIARAIALGLTKGGVAVKSINCEFATPEEIQTNLEQVDGFLIGSPTIGGHAPTPINTALGIVLKVGDNNKLAGVFGSYGWSGEALDMIEGKLRDAGYRFGLDTLKVKFKPDDVTLKFCEEVGTDFAQTLKKAKKVRVPQQAATPVEQAVGRIVGSVCVITAKQGDVSTGMLGSWVSQATFNPPGLTVAIAKERAIESLMYPGGKFALNILSEGNHLEYMKHFRKNFAPGEDRFANFTTTEADNGCTVLADALAYVECSVDQRLECGDHWVVYATVDNGKLLKPDDVTAINHRKTGNHY | soluble
16 | MGSDKIHHHHHHMQQNTNVDPQEIAKFERMAETWWDLNGEFKPLHLLNPLRLNYIDQTAGGIFGKKVLDVGCGGGILSESMARIGAIVDGLDMGEEPLEVARLHALETGVSINYVKNTAEAHREDHREYYDVVTCMEMLEHVPDPQSVIQACCDMVKPGGFVFFSTINRNVRSFVETIIGAEYLLKMLPIGTHDHNKFIKPSELIDLVDNTELICKDALGITYNPLTGIFKYTSKVDVNYMIATQKVD | not soluble
17 | ENAIIGVNDHTLVTESDGRRWVTREPAIVYFHKKYWFNIIAMIRDNGTSYYCNMASPYYLDEEALKYIDYDLDVKIFTDGEKRLLDVEEYERHKRKMNYS | not soluble
18 | MSLNASSISSRFKDLFVTPSIVFDFDGTLAIGHGPVLAYALCVAPEGSKDFLERVRRELRRYDDGQSIYRDGYDIVAKLASELGIDDGTMSVAYGESRKLLGSDLAPVEHVRGIKDILSSLKGHARLVLATNAPENGVHDLLRQWGVADLFDQLHFVVGKPAGLISIISDLQLDGPVLAVGDIYEFDLSPAAQLGADTALVGATATISEAKVSMRGDSIADLPLLAWVSSRVSSEGHHHHHH | soluble
